The values that follow come from patent publication US20150119341A1.

Test [1] addresses recombinant human melanocortin-4 receptor (hMCR-4) in membrane homogenates of HEK-293 cells (human) (UniProt P32245). Description: competitive inhibition of [I125]-NDP-alpha-MSH, hMCR-4 HEK-293 membranes.
Test [2] concerns the target recombinant human melanocortin-1 receptor (hMCR-1a) in membrane homogenates of HEK-293 cells (human) (UniProt Q01726). Description: competitive inhibition of [I125]-NDP-alpha-MSH, hMCR-1 HEK-293 membranes.

pKi: −log10 of the molar value. [ ]: non-standard residue; d: D form. Nle = CCCC[C@H](N)C(=O)O

recombinant human melanocortin-1 receptor (hMCR-1a) in membrane homogenates of HEK-293 cells (human), sequence (Q01726 whole entry): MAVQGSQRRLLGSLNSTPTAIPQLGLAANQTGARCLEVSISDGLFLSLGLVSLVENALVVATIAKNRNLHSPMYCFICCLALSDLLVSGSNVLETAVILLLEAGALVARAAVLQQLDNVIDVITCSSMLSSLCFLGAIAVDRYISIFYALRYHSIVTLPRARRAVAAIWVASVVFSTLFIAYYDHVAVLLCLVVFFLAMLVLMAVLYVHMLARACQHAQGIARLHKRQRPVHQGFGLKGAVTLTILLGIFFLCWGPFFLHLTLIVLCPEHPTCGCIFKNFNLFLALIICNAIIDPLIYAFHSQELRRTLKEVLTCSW
recombinant human melanocortin-4 receptor (hMCR-4) in membrane homogenates of HEK-293 cells (human), sequence (P32245 whole entry): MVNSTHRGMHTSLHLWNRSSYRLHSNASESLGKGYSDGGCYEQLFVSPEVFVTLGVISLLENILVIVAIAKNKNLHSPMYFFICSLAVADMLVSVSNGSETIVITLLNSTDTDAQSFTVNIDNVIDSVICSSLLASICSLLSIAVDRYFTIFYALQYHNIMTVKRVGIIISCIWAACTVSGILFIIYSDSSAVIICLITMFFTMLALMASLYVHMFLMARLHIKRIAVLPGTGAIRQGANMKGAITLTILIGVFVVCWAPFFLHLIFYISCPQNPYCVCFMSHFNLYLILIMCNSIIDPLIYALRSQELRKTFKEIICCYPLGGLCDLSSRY

In the case of Ac-[Nle][dF]RAW-NH2, the pKi was 5.15 in test [1] and 5.89 in test [2].
For Ac-[Nle]AH[dF]R[dP][dW]-NH2, in that order: 5.00 and 7.70.
